From the supplement of paper PMC10567573

B1: TRIM55 (parent)
chain: ICPICLEMFTKPVVILPCQHNLCR

Variants of: B1
Experiment: protein stability index of a GFP-peptide fusion (GPS, HEK-293T) (PSI 1-6); higher = more stable
Settings: c terminus: a fixed tail appended
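Note: lentivirally expressed fusions sorted by FACS into six bins by GFP to DsRed ratio, PSI derived from sequencing read proportions per bin multiplied by bin number.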

Q: With ICPICLEMFTKPVVILPCLHNLCR [Q19L] as the variant, how does the protein stability index read?
A: 1.84

Q: Which protein stability index does the source give for ICPICLEMFTKPVVILPCTHNLCR [Q19T] here?
A: 1.98

Q: Which protein stability index does the source give for ICPICLEMFTKPVVILPCNHNLCR [Q19N] here?
A: 2.34

Q: Which protein stability index does the source give for ICPICLEMFTKPVVILPCIHNLCR [Q19I] here?
A: 2.68

Q: For ICPICLEMFTKPVVILPCAHNLCR [Q19A], which protein stability index is on record?
A: 2.05

Q: For ICPICLEMFTKPVVILPCFHNLCR [Q19F], which protein stability index is on record?
A: 2.05

Q: With ICPICLEMFTKPVVILPCMHNLCR [Q19M] as the variant, how does the protein stability index read?
A: 2.15

Q: Which protein stability index does the source give for ICPICLEMFTKPVVILPCPHNLCR [Q19P] here?
A: 2.12

Q: For ICPICLEMFTKPVVILPCWHNLCR [Q19W], which protein stability index is on record?
A: 1.61

Q: Which protein stability index does the source give for ICPICLEMFTKPVVILPCSHNLCR [Q19S] here?
A: 2.23

Q: With ICPICLEMFTKPVVILPCKHNLCR [Q19K] as the variant, how does the protein stability index read?
A: 2.01

Q: Which protein stability index does the source give for ICPICLEMFTKPVVILPCGHNLCR [Q19G] here?
A: 2.85

Q: For ICPICLEMFTKPVVILPCCHNLCR [Q19C], which protein stability index is on record?
A: 1.98

Q: Which protein stability index does the source give for ICPICLEMFTKPVVILPCEHNLCR [Q19E] here?
A: 2.28

Q: Which protein stability index does the source give for ICPICLEMFTKPVVILPCHHNLCR [Q19H] here?
A: 2.09

Q: Which protein stability index does the source give for ICPICLEMFTKPVVILPCDHNLCR [Q19D] here?
A: 2.54

Q: For ICPICLEMFTKPVVILPCVHNLCR [Q19V], which protein stability index is on record?
A: 2.18

Q: For ICPICLEMFTKPVVILPCRHNLCR [Q19R], which protein stability index is on record?
A: 2.25

Q: With ICPICLEMFTKPVVILPCYHNLCR [Q19Y] as the variant, how does the protein stability index read?
A: 2.31

Q: For ICPICLEMFTKPVVCLPCQHNLCR [I15C], which protein stability index is on record?
A: 2.71

Q: Which protein stability index does the source give for ICPICLEMFTKPVVVLPCQHNLCR [I15V] here?
A: 2.14

Q: Which protein stability index does the source give for ICPICLEMFTKPVVHLPCQHNLCR [I15H] here?
A: 2.38

Q: For ICPICLEMFTKPVVNLPCQHNLCR [I15N], which protein stability index is on record?
A: 2.5

Q: Which protein stability index does the source give for ICPICLEMFTKPVVDLPCQHNLCR [I15D] here?
A: 2.81

Q: With ICPICLEMFTKPVVMLPCQHNLCR [I15M] as the variant, how does the protein stability index read?
A: 2

Q: For ICPICLEMFTKPVVELPCQHNLCR [I15E], which protein stability index is on record?
A: 3.32

Q: Which protein stability index does the source give for ICPICLEMFTKPVVWLPCQHNLCR [I15W] here?
A: 1.85

Q: With ICPICLEMFTKPVVGLPCQHNLCR [I15G] as the variant, how does the protein stability index read?
A: 2.53

Q: With ICPICLEMFTKPVVQLPCQHNLCR [I15Q] as the variant, how does the protein stability index read?
A: 3.22

Q: For ICPICLEMFTKPVVYLPCQHNLCR [I15Y], which protein stability index is on record?
A: 2.02

Q: With ICPICLEMFTKPVVSLPCQHNLCR [I15S] as the variant, how does the protein stability index read?
A: 2.74

Q: For ICPICLEMFTKPVVLLPCQHNLCR [I15L], which protein stability index is on record?
A: 2.6

Q: Which protein stability index does the source give for ICPICLEMFTKPVVRLPCQHNLCR [I15R] here?
A: 2.18

Q: With ICPICLEMFTKPVVKLPCQHNLCR [I15K] as the variant, how does the protein stability index read?
A: 2.09

Q: Which protein stability index does the source give for ICPICLEMFTKPVVTLPCQHNLCR [I15T] here?
A: 2.88

Q: With ICPICLEMFTKPVVPLPCQHNLCR [I15P] as the variant, how does the protein stability index read?
A: 2.69

Q: With ICPICLEMFTKPVVALPCQHNLCR [I15A] as the variant, how does the protein stability index read?
A: 2.84

Q: Which protein stability index does the source give for ICPICLEMFTKPVVFLPCQHNLCR [I15F] here?
A: 2.32

Q: Which protein stability index does the source give for ICPICLEMFTKPVVILPCQHNTCR [L22T] here?
A: 2.17

Q: With ICPICLEMFTKPVVILPCQHNCCR [L22C] as the variant, how does the protein stability index read?
A: 2.04

Q: Which protein stability index does the source give for ICPICLEMFTKPVVILPCQHNHCR [L22H] here?
A: 2.48

Q: With ICPICLEMFTKPVVILPCQHNKCR [L22K] as the variant, how does the protein stability index read?
A: 2.38

Q: With ICPICLEMFTKPVVILPCQHNWCR [L22W] as the variant, how does the protein stability index read?
A: 2.44

Q: For ICPICLEMFTKPVVILPCQHNFCR [L22F], which protein stability index is on record?
A: 1.99

Q: With ICPICLEMFTKPVVILPCQHNRCR [L22R] as the variant, how does the protein stability index read?
A: 2.51

Q: For ICPICLEMFTKPVVILPCQHNSCR [L22S], which protein stability index is on record?
A: 2.4

Q: Which protein stability index does the source give for ICPICLEMFTKPVVILPCQHNYCR [L22Y] here?
A: 2.08
